Experiments:
[1] = biological target: T1, biotinylated PD1-ECD-AviHis (human, UniProt Q15116 25-170, biotinylated, site not stated); test: ELISA on coated biotinylated PD1-ECD-AviHis
T1 construct: also called huPD1; hu PD1

[2] = biological target: T1, biotinylated PD1-ECD-AviHis; test: ELISA, inhibition of PD-L2 Fc binding to coated PD1-ECD-AviHis
Method: After washing (3×90 μl/well with PBST-buffer) 25 μl anti PD1 samples or reference antibodies (mouse anti huPD1; Roche) were added and incubated 1 h at RT on shaker.

[3] = biological target: T2, biotinylated cynoPD1-ECD-Biotin (cynomolgus); test: ELISA on coated cynoPD1-ECD-Biotin
T2 construct: extracellular domain; also called cyPD1
Method: After washing (3×90 μl/well with PBST-buffer) 25 μl anti PD1 samples or reference antibodies (human anti PD1; Roche) were added and incubated 1 h at RT on shaker. After washing (3×90 μl/well with PBST-buffer) 25 μl/well goat-anti-human H+L-POD (JIR, JIR109-036-088) was added in 1:1000 dilution and incubated at RT for 1 h on shaker.

[4] = biological target: T1, biotinylated PD1-ECD-AviHis; test: ELISA, inhibition of PD-L1 Fc binding to coated PD1-ECD-AviHis
[5] = biological target: T3, full-length human Tim3 on cells (CHO-K1 stably transfected with plasmid 15312_hTIM3-fl_pUC_Neo) (human, UniProt Q8TDQ0 22-301); test: cell-based or functional assay
[6] = biological target: T1, biotinylated PD1-ECD-AviHis; test: ELISA on coated biotinylated PD1-ECD-AviHis; remark: listed apart in the source
Method: After washing (3×90 μl/well with PBST-buffer) 25 μl anti PD1 antibody samples were added in increasing concentrations and incubated 1 h at RT. After washing (3×90 μl/well with PBST-buffer) 25 μl/well goat-anti-human H+L-POD (JIR, JIR109-036-098) was added in 1:5000 dilution and incubated at RT for 1 h on a shaker.

Tim3-ECD-His-Biotin [7] = biological target: T4, Tim3-ECD-His-Biotin (human, UniProt Q8TDQ0 22-202, biotinylated with BirA Ligase, site not stated); test: ELISA on human Tim3
T4 construct: also called human Tim3 (ELISA); Biochem Human

[8] = biological target: T3, full-length human Tim3 on cells (CHO-K1 …); test: cellular ELISA on CHO-TIM3 (values in relation to the samples max value)
Method: (§1) Then the reaction was stopped by addition of 25 μl/well 1N HCL-solution.

[9] = biological target: T3, full-length human Tim3 on cells (CHO-K1 …); test: cellular ELISA on CHO-TIM3
Method: as §1

Tim3-ECD-His-Biotin [10] = biological target: T4, Tim3-ECD-His-Biotin; test: ELISA on human Tim3 (values in relation to the samples max value)
Method: After washing (3×90 μl/well with PBST-buffer) 25 μl aTim3 samples or diluted (1:2 steps) reference antibody aTim3 F38-2E2 (Biolegend) was added and incubated 1 h at RT. After washing (3×90 μl/well with PBST-buffer) 25 μl/well sheep-anti-mouse-POD (GE NA9310V) was added in 1:9000 dilution and incubated at RT for 1 h while shaking at 400 rpm rotation. After washing (4×90 μl/well with PBST-buffer) 25 μl/well TMB substrate (Calbiochem, #CL07) was added and incubated until OD 1.5-2.5. Then the reaction was stopped by addition of 25 μl/well 1N HCL-solution.

Binder | EC50 [1] [µg/mL] | IC50 [2] [µg/mL] | EC50 [3] [µg/mL] | IC50 [4] [µg/mL] | further results
PD1-0098 (antibody, V domains shown) VH: DVQLQESGPGLVKPSQSLSLTCTVTGYSITSDYAWNWIRQFPGDKLEWLGYITYSGFTNYNPSLKSRISISRDTSKNQFFLQLNSVATEDTATYYCARWHGSAPWYFDYWGRGTTLTVSS VL: DVLMTQTPLSLPVSLGDQASISCRSSQNIVHSDGNTYLEWYLQKPGQSPNLLIYKVSRRFSGVPDRFSGSGSGTDFTLKISRVEAEDLGVYYCFQGSHFPLTFGAGTKLELK | 0.0508 | 0.045 | 0.0546 | 0.174 | 
Tim3_0038 (antibody, V domains shown) VH: EVQLQQSGAEPLKPGASVKLTCTTSGFNIKDYYIHWVKQRSDQGLEWIGRIDPEDGELIYAPKFQDKATITVDTSSNIAYLQLNSLTSEDTAVYYCSRDHGYVGWFAYWGQGTLVTVSA VL: NVVMTQSPKSMIMSVGQRVTLNCKASENVDTYVSWYQQKPEQSPKLLIYGASNRYTGVPDRFTGSRSATDFTLTISSVQAEDLAVYYCGQSYSYPWTFGGGTKLEFR |  |  |  |  | IFN-gamma release in MLR at 1 µg/ml antibody, % of rec hu IL-2 (20 EU/ml) = 100% [5]: 1%; IFN-gamma release in MLR at 10 µg/ml antibody, % of rec hu IL-2 (20 EU/ml) = 100% [5]: 38%; IFN-gamma release in MLR at 40 µg/ml antibody, % of rec hu IL-2 (20 EU/ml) = 100% [5]: 51%
PD1-0102 (antibody, V domains shown) VH: DVQLQESGPDLVKPSQSLSLTCTVTGYSITSGYSWHWIRQFPGNKLEWMGFIHSSGDTNYNPSLKSRISFTRDTSKNQFFLQLSSLTDEDTATYYCATYRNWYFDVWGAGTTVTVSS VL: DIVMTQSPSSLTVTAGEKVTMRCKSSQSLLNSGTQKNYLTWYQQKPGQPPKLLIYWASTRESGVPNRFTGSGSGTDFTLTISSVQAEDLSVYYCQSDYTFPLTFGGGTKLELK | 0.0342 | 0.14 | 0.0527 | > 35.5 | 
Chimeric TIM3-0028 (antibody, human IgG1, V domains shown, also called aTIM3-chi28) VH: EVQLQQSVAELVRPGASVKLSCTASGFNIKTTYMHWVKQRPEQGLEWIGRIDPADDNTKYAPKFQGKATITADTSSNTAYLQLSSLTSEDAAIYYCVRDFGYVAWFAYWGQGTLVTFSA VL: NIVMTPTPKFLPVSSGDRVTMTCRASQSVDNYVAWYQQKPGQSPKLLIYYASNRYIGVPDRFTGSGSGTDFTFTISSVQVEDLAVYFCQQHYSSPYTFGSGTKLEIK |  |  |  |  | binding result [6]: no binding
PD1-0078 (antibody, V domains shown) VH: QVQLQQPGAELVKPGASVKMSCKASGYTFTSTWMHWVKQRPGQGLEWIGAIDPSDSYTTYNQKFKGKATLTVDTSSTTAYMQLSSLTSEDSAVYYCTRSPFDYWGQGTTLTVSS VL: DIVMTQSHKFMSTSVGDRVSITCKASQDVSTAVAWYQQKPGQSPKLLIYSASYRYTGVPDRFTGSGSGTDFTFAISSVQAEDLAVYYCQQHYSHPFTFGSGTKLEIK | 0.0263 | 0.086 | 0.0224 |  | 
PD1-0073 (antibody, V domains shown) VH: EVKLVESGGGLVKPGGSLKLSCAASGFTFSNYGMSWIRQTPEKGLEWVATISGGGRDTYYPDSVKGRFTISRDNVKNNLYLQMSSLRSEDTAFYYCASYYYGIDYWGQGTSVTVSS VL: DIVMTQPHKFMSTSVGDRVRITCKASQDVTTAVAWYQQKPGQSPKLLIYWASTRHTGVPDRFTGSGSGTEFTLTISSVQAEDLALYYCQQHYSIPWTFGGGTKLEIK | 0.0151 | 0.065 | 0.0083 | 0.124 | 
PD1-0069 (antibody, V domains shown) VH: QVQLQQSGPELVRPGVSVKISCKGSGYTFTDYAMHWVKQSHARTLEWIGVISTYSGDTNYNQKFKDKATMTVDKSSSTAYLELARMTSEDSAIYYCARLGITTGFAYWGQGTLVTVSA VL: DIVLTQSPASLAVSLGQRATISCRASKGVSTSSYSFMHWYQQKPRQPPKLLIKYASYLESGVPARFSGSGSGTDFTLNIHPVEEEDAATYYCHHSREFPWTFGGGTKLEIK | 0.0457 | 0.089 | 0.0227 | 0.225 | 
Tim3_0016 (antibody, V domains shown) VH: QVTLKESGPGILQPSQTLRLTCSFSGFSLSTSGMSVGWIRQPSGKGLEWLAHIWLNDDVFFNPALKSRLTISKDTSNNQVFLQIASVVTADTATYYCVRANGYLYALDYWGQGTSVTVSS VL: QIVLTQSPAIMSASPGQKVTITCSASSSVNYTQWYQQKLGSSPKLWIYDAFKLAPGVPARFSGSGTGTSYSLTISSMEAEDAASYFCHQWSSYPWTFGGGTKLEIK |  |  |  |  | IFN-gamma release in MLR at 1 µg/ml antibody, % of rec hu IL-2 (20 EU/ml) = 100% [5]: 7%; IFN-gamma release in MLR at 10 µg/ml antibody, % of rec hu IL-2 (20 EU/ml) = 100% [5]: 22%
Tim3_0018MutNQ (antibody, V domains shown) VH: QVTLKESGPGILQPSQTLSLTCSFSGFSLSTSGMSVGWIRQPSGKGLEWLAHIWLNDDVFFNPALKRRLTISKDTSNNQVFLQIASVVTADTATYYCVRANGYLYALDYWGQGISVTVSS VL: QIVLTQSPAIMSASPGQKVTITCSASSSVQYTQWYQQKLGSSPKLWIYDAFKLAPGVPARFSGSGTGTSYSLTISSMEAEDAASYFCHQWSSYPWTFGGGTKLEIK |  |  |  |  | Inflexion point (Tim3-ECD-His-Biotin [7]): 10.8 ng/mL; EC50 [8]: 13.4 ng/mL; Inflexion point [9]: 12.8 ng/mL; EC50 (Tim3-ECD-His-Biotin [10]): 12 ng/mL
Tim3_0016MutNQ (antibody, V domains shown) VH: QVTLKESGPGILQPSQTLRLTCSFSGFSLSTSGMSVGWIRQPSGKGLEWLAHIWLNDDVFFNPALKSRLTISKDTSNNQVFLQIASVVTADTATYYCVRANGYLYALDYWGQGTSVTVSS VL: QIVLTQSPAIMSASPGQKVTITCSASSSVQYTQWYQQKLGSSPKLWIYDAFKLAPGVPARFSGSGTGTSYSLTISSMEAEDAASYFCHQWSSYPWTFGGGTKLEIK |  |  |  |  | Inflexion point (Tim3-ECD-His-Biotin [7]): 5.7 ng/mL; EC50 [8]: 6.3 ng/mL; Inflexion point [9]: 5.4 ng/mL; EC50 (Tim3-ECD-His-Biotin [10]): 7.6 ng/mL
Tim3_0016MutNS (antibody, V domains shown) VH: QVTLKESGPGILQPSQTLRLTCSFSGFSLSTSGMSVGWIRQPSGKGLEWLAHIWLNDDVFFNPALKSRLTISKDTSNNQVFLQIASVVTADTATYYCVRANGYLYALDYWGQGTSVTVSS VL: QIVLTQSPAIMSASPGQKVTITCSASSSVSYTQWYQQKLGSSPKLWIYDAFKLAPGVPARFSGSGTGTSYSLTISSMEAEDAASYFCHQWSSYPWTFGGGTKLEIK |  |  |  |  | Inflexion point (Tim3-ECD-His-Biotin [7]): 5.5 ng/mL; EC50 [8]: 9.1 ng/mL; Inflexion point [9]: 8.5 ng/mL; EC50 (Tim3-ECD-His-Biotin [10]): 8.5 ng/mL
PD1-0103 (antibody, V domains shown, Mouse monoclonal antibody) VH: EVILVESGGGLVKPGGSLKLSCAASGFSFSSYTMSWVRQTPEKRLDWVATISGGGRDIYYPDSVKGRFTISRDNAKNTLYLEMSSLMSEDTALYYCVLLTGRVYFALDSWGQGTSVTVSS VL: KIVLTQSPASLPVSLGQRATISCRASESVDTSDNSFIHWYQQRPGQSPKLLIYRSSTLESGVPARFSGSGSRTDFTLTIDPVEADDVATYYCQQNYDVPWTFGGGTKLEIK | 0.0337 | 0.051 | 0.0369 | 0.182 | 
PD1-0050 (antibody, V domains shown) VH: DVQLQESGPGLVKPSQSLSLTCTVTGYSITSDYAWNWIRQFPGNKLEWMGYITYTGRTSYNPSLKSRISITRDTSKNQFFLQLNSVTTEDTATYYCAREMDYYGSTLDYWGQGTTLTVSS VL: KIVLTQSPASLAVSLRQRATISCRASESVDRYGNSFIHWYQQKPGQPPKVLIYRASNLESGFPARFSGSGSRTDFTLTIDPVEADDAATYYCQQNNEDPYTFGSGTKLEIK | 0.0179 | 0.034 | 0.0098 | 0.128 | 

— patent publication US20190322748A1 (Hoffmann-La Roche, published 2019)
